According to publication PMC10793675 (mAbs, 2023):
Positions count from the first letter of the chain named.

T1: biotinylated avi-tagged canine PD-1 soluble protein (canine, biotin)
T1 chain: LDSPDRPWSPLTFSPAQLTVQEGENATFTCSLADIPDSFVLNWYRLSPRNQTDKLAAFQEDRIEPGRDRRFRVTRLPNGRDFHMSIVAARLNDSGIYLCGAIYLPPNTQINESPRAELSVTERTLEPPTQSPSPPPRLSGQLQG

B1: P3C6 soluble scFv (scFv, V domains shown)
VH: EVQLVQSGGDLVKPGGSLRLSCMASGFTFSKYGMSWVRQSPGKGLQWVADIAANGGTYYTDAVKGRFTISRDNAKNALYLQMDDLRAEDTAVYYCARWGGAPFDYWGQGTLVTVSS
VL: EIVMTQSPASLSLSQEEKVTITCRASQSVSSYLAWYQQKPGQAPKLLIYGTSNRATGVPSRFSGSGSGTDFSFTISSLEPEDVAVYYCQQGLQYPITFGKGTHLEIK
B2: P3C6mut3.1 full-length canine IgGD (antibody, V domains shown)
VH: B1 VH with L11V, A77T, D83N, D84S
VL: B1 VL
B3: P4B1 soluble scFv (scFv, V domains shown)
VH: EVQLVQSGGDVVKPGGSLRLSCVASGFTFNTYGMNWVRQSPGKGLQWVAAIANSGSTYYADAVRGRFTISRDNAKNTLYLQMNSLRAEDAAIYYCASGIWGDWFYYWGQGTLVTVSS
VL: SSVLTQPPSVSVSLGQTATISCSGESLTKYYAQWFQQKPGQAPMLVIYKDTERPSGIPDRFSGSSSGNTHTLTISGARAEDEADYYCESAVSADAVVFGGGTHLTVL
B4: P3C6mut3.2 full-length canine IgGD (antibody, V domains shown)
VH: B1 VH with L11V, M23V, A77T, D83N, D84S
VL: B1 VL

Key:
[1] = target: canine PD-1 expressed on the surface of KTδ32 cells (Canis lupus familiaris, UniProt A0A090BAM7); experiment: flow cytometry on cells
[2] = target: T1, biotinylated avi-tagged canine PD-1 …; experiment: ELISA
[3] = target: recombinant canine PD-1 protein, His tag (Canis lupus familiaris, UniProt A0A090BAM7); experiment: SPR

Binder | binding result [1] | binding result [2] | binding half-life [3] [h] | koff [3] [s⁻¹] | kon [3] [M⁻¹ s⁻¹]
B1 | binds | binds |  |  | 
B2 |  |  | 1.35 | 0.000143 | 131000
B3 |  | binds |  |  | 
B4 | binds |  |  |  | 
